According to article PMC10200060, “Inhibition of DAMP actions in the tumoral microenvironment using lactoferrin-glycyrrhizin conjugate for glioblastoma therapy” (Biomaterials Research, 2023):

Experiments:
U87MG spheroid = test: GBM spheroid growth inhibition; type: cell-based, human; conditions: GL equivalent 50 µM, day 6 (control 294%)
Method: Fig. S8. GBM spheroid growth inhibition of Lf-GL. To form U87MG spheroid, cells were seeded at density of 1X10^5 cells in concave mold (StemFIT 3D; MICROFIT, Korea). After spheroids were formed, they were transferred to 24-well plate coated with 2% agarose gel. The constructed spheroids were treated with conditioned medium at 2 days interval after a washing step with PBS. (a) Morphology of U87MG spheroid treated with Lf-GL of GL equivalent concentration of 50 µM on day 0, 2, 4 and 6, respectively. Scale bar: 200 µm (b) GBM spheroids time-related volume after treated with Lf-GL of GL equivalent concentration of 50 µM. Data were expressed as mean ± S.E.M (n=9). **P <0.01 versus Control.

[1] = biological target: T1, human recombinant HMGB1 protein (Homo sapiens, UniProt P09429); test: SPR binding affinity against HMGB1; conditions: SPR, HMGB1 immobilized; for Ka, association rate constant / Kd, dissociation rate constant: PBS pH 7.4, room temperature
T1 construct: purchased Abcam
T1 sequence (P09429 1-215): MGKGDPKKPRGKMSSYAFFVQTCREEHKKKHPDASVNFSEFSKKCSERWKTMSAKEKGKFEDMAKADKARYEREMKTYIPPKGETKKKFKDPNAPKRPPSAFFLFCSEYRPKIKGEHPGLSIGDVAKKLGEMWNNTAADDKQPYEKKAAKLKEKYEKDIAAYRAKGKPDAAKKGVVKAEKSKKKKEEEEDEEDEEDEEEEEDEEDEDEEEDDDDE
Method: To confirm the binding affinity of Lf-GL to HMGB1, Surface Plasmon Resonance (SPR) was conducted at WoojungBSC (Korea). The Reichert SR7500DC system (Reichert technologies, NA, USA) and Scrubber2 software (Biologic software, FRA) were used, and a CMDH chip (Cat #: 13,206,066, Reichert technologies) was used for immobilization of the human recombinant HMGB1 protein (Abcam). HMGB1 protein was used as a ligand, and the analytes were HMGB1 antibody (Abcam), GL, Lf and Lf-GL conjugate. The immobilization buffer was S.A. (10 × 10^–3 M, pH 4.5), and the running buffer was PBS (pH 7.4). The flow rate of the analyte was 30 μL min^−1. The association and dissociation time were 3 min each, and measurements were conducted at room temperature. Results are expressed in response units (RU) over time.
Fig. S5. Binding affinity against HMGB1. Surface Plasmon Resonance (SPR) was conducted at WoojungBSC (Korea). The Reichert SR7500DC system (Reichert technologies, NA, USA) and Scrubber2 software(Biologic software, FRA) were used and the CMDH chip (Cat #: 13206066, Reichert technologies) was used for immobilization of the human recombinant HMGB1 protein (Abcam). HMGB1 protein was used as ligand and analytes were HMGB1 antibody (Abcam), GL, Lf and Lf-GL conjugate. Immobilization buffer was 10 mM S.A. (pH 4.5) and running buffer was 1× PBS. The flow rate of the analyte was 30 μL min^-1. The association and dissociation time were 3 min each and conducted at room temperature. Results are expressed in response units (RU) over time.

B1: Lf-GL (1:4): lactoferrin-glycyrrhizin conjugate, ratio 1:4 (conjugate, UniProt P24627 20-708, looked up)
Lactotransferrin: APRKNVRWCTISQPEWFKCRRWQWRMKKLGAPSITCVRRAFALECIRAIAEKKADAVTLDGGMVFEAGRDPYKLRPVAAEIYGTKESPQTHYYAVAVVKKGSNFQLDQLQGRKSCHTGLGRSAGWIIPMGILRPYLSWTESLEPLQGAVAKFFSASCVPCIDRQAYPNLCQLCKGEGENQCACSSREPYFGYSGAFKCLQDGAGDVAFVKETTVFENLPEKADRDQYELLCLNNSRAPVDAFKECHLAQVPSHAVVARSVDGKEDLIWKLLSKAQEKFGKNKSRSFQLFGSPPGQRDLLFKDSALGFLRIPSKVDSALYLGSRYLTTLKNLRETAEEVKARYTRVVWCAVGPEEQKKCQQWSQQSGQNVTCATASTTDDCIVLVLKGEADALNLDGGYIYTAGKCGLVPVLAENRKSSKHSSLDCVLRPTEGYLAVAVVKKANEGLTWNSLKDKKSCHTAVDRTAGWNIPMGLIVNQTGSCAFDEFFSQSCAPGADPKSRLCALCAGDDQGLDKCVPNSKEKYYGYTGAFRCLAEDVGDVAFVKNDTVWENTNGESTADWAKNLNREDFRLLCLDGTRKPVTEAQSCHLAVAPNHAVVSRSDRAAHVKQVLLHQQALFGKNGKNCPDKFCLFKSETKNLLFNDNTECLAKLGGRPTYEEYLGTEYVTAIANLKKCSTSPLLEACAFLTR
modifications: glycyrrhizin conjugate 1:4
U87MG spheroid
  Spheroid volume increase at day 6 compared to day 0: 185%
[1]
  KD, equilibrium dissociation constant (KD = Kd Ka^−1): 595 ± 5 nM
  Ka, association rate constant: (2.66±0.02)·10^3 M^-1s^-1
  Kd, dissociation rate constant: 0.001584 ± 8e-06 s⁻¹

B2: Lf-GL (1:15): lactoferrin-glycyrrhizin conjugate, ratio 1:15 (conjugate, UniProt P24627 20-708, looked up)
Lactotransferrin: APRKNVRWCTISQPEWFKCRRWQWRMKKLGAPSITCVRRAFALECIRAIAEKKADAVTLDGGMVFEAGRDPYKLRPVAAEIYGTKESPQTHYYAVAVVKKGSNFQLDQLQGRKSCHTGLGRSAGWIIPMGILRPYLSWTESLEPLQGAVAKFFSASCVPCIDRQAYPNLCQLCKGEGENQCACSSREPYFGYSGAFKCLQDGAGDVAFVKETTVFENLPEKADRDQYELLCLNNSRAPVDAFKECHLAQVPSHAVVARSVDGKEDLIWKLLSKAQEKFGKNKSRSFQLFGSPPGQRDLLFKDSALGFLRIPSKVDSALYLGSRYLTTLKNLRETAEEVKARYTRVVWCAVGPEEQKKCQQWSQQSGQNVTCATASTTDDCIVLVLKGEADALNLDGGYIYTAGKCGLVPVLAENRKSSKHSSLDCVLRPTEGYLAVAVVKKANEGLTWNSLKDKKSCHTAVDRTAGWNIPMGLIVNQTGSCAFDEFFSQSCAPGADPKSRLCALCAGDDQGLDKCVPNSKEKYYGYTGAFRCLAEDVGDVAFVKNDTVWENTNGESTADWAKNLNREDFRLLCLDGTRKPVTEAQSCHLAVAPNHAVVSRSDRAAHVKQVLLHQQALFGKNGKNCPDKFCLFKSETKNLLFNDNTECLAKLGGRPTYEEYLGTEYVTAIANLKKCSTSPLLEACAFLTR
modifications: glycyrrhizin conjugate 1:15
U87MG spheroid
  Spheroid volume increase at day 6 compared to day 0: 179%
[1]
  KD, equilibrium dissociation constant (KD = Kd Ka^−1): 32.3 ± 0.2 nM
  Ka, association rate constant: (2.99±0.02)·10^4 M^-1s^-1
  Kd, dissociation rate constant: (9.65±0.04)·10^-4 M^-1s^-1
